# Earlier results in article PMC8384639.
# Molecular target: Histone H3 K4me3 peptide 1-15 (Homo sapiens) (UniProt P68431)
substance,measurement,value
BPTF PHD (from UniProt Q12830),Kd,2700 nM
